Source: the DeepSol protein solubility set

Assay: soluble on expression in E. coli; label from the status in PepcDB or PDB records

Sequence | soluble on expression in E. coli
ERVDEKVFSAGTSIFRGILEKVKAPLMYGDREVWGMARASEDFFFILPVTDDLTPVLFYNRLTNEPCFVSDQGITEYFKFAQEGDYIEVEGSSVFMANLLYYRFFPTRITSYNAPIEGVVSKTGNPAFTIPMLPGVSDCIEISNNRKVFLTNQLGVVNITDGMEPPIIAGVSASYGSSVRVYGHVSQRWDIIGHCYLDIYPTNCYPLSTKPVAGDDEVFVKQQGRQIEIDSNSPIVQVVVYDLEGKSVFRKRMTENA | not soluble
MVEKHLLEFLEKLQFLISKNVKISHYGIENVKKICGVDIAYKGNLGFSVGVSMDINSGDYNYKSYVGEVNFPYIPGFLFMREAPLMIKAIEGLDCHLLLVDGHGIAHPRKSGIAAVIGVLLDFPTIGVAKSRLTGDLVNESEITYVYLNGEKVGVKFGRYFYSPGNKVDLQDCIELGKRGYPKVLKIADMLTKKIKKE | soluble
MPPATNNSREEKEEETTDLSAGKGDCGIKAAATIYVNCELLGGAKKRKKKVYIIPKKNNISQRKSSSPSPKYFKIDENGKISRLPTGIPTVSIQREAFMTQPTTLRKMSQHPCR | soluble
STATIDRRLSTLNPNAPVFDPVEFREVEDFSPKWWDLVTTSKWFRDFWLSANSENEFLGGDDFSVMEEEFEEMIASSDGGSMADTVTEADVASYLKMLLNIAESTKEKIYRSKVSSCSPKYNQKKYMNPNFNCRRNHHIYQPR | soluble
MSAYSMLSDRIVMAKELIKRAESLSRSRKGGIEGGAKLCSKLKAELKFLQKIEAGKVAIKESHLQSTNLTHLKAIVESAENLEEVVSVLRVFGYTDTLGEKQTLVVDVVANGGHTWVKAIGRKAEALHNIWLGRGQYGDKSIIEQAEDFLQASRQQPVQYSNPHIVFAFYNSVSSPMADKLKDMGISVRGDIVAVNSLLNHPEEFQLSESESDDEGQELLQVTRVDRDNVLARVAFPTEIKVDVCKKVNLDITTLITYVSAMSYGGCHFVFKEKVLTEQAEQERKERVLPQLEAFMKDKELFACESAVKDFQSILDTLGGPGERERADVLIKRISVVPDQPSERALRLVASSKINSRSLTIFGTGDTLKAITMTANSGFVRAANNQGVKFSVFIHQPRALTESKEAFAVPLPKDLTDDSAH | not soluble
MKKTQLGRSFSKSFKQKKARASNASSDPFRFQNNGISYKGKLIGEQDVDKARGDAMCAEAMRTAKSIIKAAGAHKTRITLQINIDGIKVLDEKSGAVLHNFPVSRISFIARDSSDARAFGLVYGEPGGKYKFYGIKTAQAADQAVLAIRDMFQVVFEMKKKQIEQVKQQQIQDGGAEISSKKEGGVAVADLLDLESELQQIERGVQQLSTVPTNCDAFGASPFGDPFVDSFNSTATSNGTANMSGTQVPFGGLQLPQVQQMQMPMVQIPQQSHQNWPTSGAGSFDAWGQQQQQQQMHHAHSTPAFGTNGFSDTNPFASAFNTQARPPPLPTVAPTQYRDPFSVHSSAIPNSNIDWTGTGTTKENMAPSTNIQQQQSSLHHASTFANFGDNKAETWSEKKVTSLEEAFTKLVDMDALVGGQGIKETKKNPFEHILNPPKASLNSMSTTCSAAQMAATQQHTTSSHADPFGDDFFR | not soluble
MGSDKIHHHHHHMKPERILNVPGAVNFRELGGYQTKFNQTIKWQKLLRSGELSHLTPRTQALLADYGLKYDIDLRSPAEASWSSDKIPAQTIYRFYPVYPIQDNEKSDLPQNKHLKYQAYEQSLYDPYLTMAFSEHSRIAFHQMFVDLLANTNEKESLLFHCAAGKDRTGMAGMLILSALQVPYQTIREDYLLTNLVYSNQDPDELRRQITGKHVDKLIQKMNSVFSVTASSLDHTHDLILDRFGSFDHYFKEALEFSDQDLADLRQIYLE | not soluble
MIDADAIKMRILSMMEQLGMTPSAFADRAGISRSALTHITSGRNKVTLDMINKIMQGFDEWSAEWIIFGKGPQQSNKTAFENDLFSYSSVPEQELHTRTKDNCGIQSPSGRLEPEIKIVQMPAKQIERITVFYTDGSYQEFRSNKE | not soluble
MSSRKGTRSSRIVTLERSANSSLSNNGGGDDSFGSTLLETSRLQEKDHLTSLNSRLATYIDKVRQLEQENNRLQVQIRDIEVVEKKEKSNLADRFEAEKARLRRALDSAQDELAKYRIEYDAAKVEVKKLKPQVEKLERELAGAEEQALHAQSIADQSQAKQKTLQARNDKLVVENDDLKKQNITLRDTVEGLKKAVEDETLLRTAANNKIKALEEDLAFALQQHKGELEEVRHKRQVDMTTYAKQINDEYQSKLQDQIEEMRAQFKNNLHQNKTAFEDAYKNKLNAARERQEEAVSEAIHLRARVRDLETSSSGNASLIERLRSELDTLKRSFQEKLDDKDARIAELNQEIERMMSEFHDLLDVKIQLDAELKTYQALLEGEEERLNLTQEAPQNTSVHHVSFSSGGASAQRGVKRRRVVDVNGEDQDIDYLNRRSKLNKETVGPVGIDEVDEEGKWVRVANNSEEEQSIGGYKLVVKAGNKEASFQFSSRMKLAPHASATVWSADAGAVHHPPEVYVMKKQQWPIGDNPSARLEDSEGDTVSSITVEFSESSDPSDPADRCSIM | not soluble
MGSDKIHHHHHHMKITLHGVAETLLITLYIRAKDAMAKHPILNDQKSLAIVEQIEYDFDKFDNSEASFYATLARIRVMDREIKKFIRENPNSQILSIGCGLDTRFERVDNGQIRWYNLDLPEVMEIRKLFFEEHERVTNIAKSALDETWTREVNPQNAPFLIVSEGVLMFLKEDDVETFLHILTNSFSQFMAQFDLCHKEMINKGKQHDTVKYMDTEFQFGITDGHEIVDLDPKLKQINLINFTDEMSKFELGTLRSLLPTIRKFNNCLGVYEYKASEKK | not soluble
YLDLWQTQDAKIRAKLAAVFQAEQNLNEAAIAYCLARALPEETAIFFANSMVVRYAEFFWQLNDQQILPYFNRGANGIDGTLSTALGIAENHSPAVLLTGDLALLHDINGFLTLSKFTGSLTIIVINNQGGGIFEMLPIAEEKDIFEDYFATPQTVEFSKVCDLYGIEYQAIQTKADLMQTCAILPPRGVRLLEVKTNRNQAMTWLKDLFQ | not soluble
MAHHHHHHMLEFLVTTQPSRRIVCRNEATYIYFWPYLFSREVPGALQLCRWAARRGAAVHGAVRLQPSETPNAAHRCYLTVTRPVAAGRTLISLPAALSLSVSSPESRKGTFIGRYSALESFAQLLARELHNPRSPHRAYLEFLHDLHNSGTDEVSDALLAGLRYERAAVLVDQLDAMYAGNSLQARGAANAPFLDKEQLTSASQRVEWVRLHQLQRRLEQGVPHFAAKSTAWALSMALSRAMEDDAEGLSLYPLIDFCAHSFEPNAYICVGEDERIAATRPVRWADSSGEPLLHVVTRRLLHAGEKVTLRWHWRPVKTTEDAEFWQMRFGYVPQSE | not soluble
SLFPHISPCEVRVLMLLYSSKKKIFMGLIPYDQSGFVSAIRQVITTRKQAVGPGGVNSGPVQIVNNKFLAWSGVMEWQEPRPEPNSRSKRWLPSHVYVNQGEILRTEQWPRKLYMQLIPQQLLTTLVPLFRNSRLVQFHFTKDLETLKSLCRIMDNGFAGCVHFSYKASCEIRVLMLLYSSEKKIFIGLIPHDQGNFVNGIRRVIANQQQVLQRNLEQEQQQRGMGG | soluble
MGSDKIHHHHHHVIGKLTLDQLRVLVAVADTGSFTAASQAVGRAQSAVSQMMAALENAQGVQLFDRSSYRPMLTEAGRVLVAQARTTLAGASRFEAMAEHMRSGVEAELALAIDPLVPSAPFMQGLRDLSARYPDLSVSFSTEGLGGSLRRLRDGSASLGICTLLPTVPDDVVAYPLLQTAMTPVVAGNHPLASQDGPLQRGDLEPHVQLVLSDPVEPSGPNYGLTSARLWRFADLNRRLDFLLGGFGWCRMPEHLVADALADGRLVALDIKNDNAPQDGLPIYAAHARDRALGPAGRWFLDAMRECMAAA | not soluble
INTVNLINQMKTLAAQAEGIKPDSGLNHASFSSVFQQALNQVNELSQTADSLKTRFEIGDPNVSLGEVMIASQKSNLGFEATLRVRNKLVQAYQDIMNMPV | not soluble
GMATEKYHEILKKYFLSFETGDFSQVQFSCNLEFLSPISGNTLKGTEEVIPFLKGVTTRVAEVNIMSTTVEYPRASGVWQMRTTKGTLYTLHNFFRLDEEGIVYVWPMFDPKAVMENPDALIQWLTGKDY | soluble
MFALVLFVCYLDGGCEDIVVDVYNTEQQCLYSMSDQRIRQGGCFPIEDFIDGFWRPAQEYGDFLEHHHHHH | soluble
